Where a chain is given by its changes, count along the chain named. Names and notes keep the numbering of the source.
B1: hRS1-Reg(S20E) (protein, not shown: small tags and cut ends)
chain: SSGQEPDVGNPMSLARSVSASVCPIKPSDSDRIEPKAVKALKASAEFQLNSEKKEHLSLQDLSDHASSADHAPTDQSPAMPMQ
B2: hRS1-Reg(S20A) (protein, not shown: small tags and cut ends)
chain: B1 chain with E5A

Target: ornithine decarboxylase (ODC) present in Xenopus laevis oocytes
Assay: cell-based or functional assay

| IC50 for down-regulation of hSGLT1 at low intracellular AMG, against hRS1-Reg wildtype [times] | affinity for down-regulation of hSGLT1 in the presence of intracellular glucose, against hRS1-Reg wildtype [times] | change of IC50 for down-regulation of hSGLT1 at high intracellular AMG (~250 µM) against low AMG [fold] | increase of affinity for down-regulation of hSGLT1 against hRS1-Reg wildtype or hRS1-Reg(S20A) [fold] | decrease of affinity for down-regulation of hSGLT1 at high intracellular glucose [fold] | Binder |
| --- | --- | --- | --- | --- | --- |
| 6300 | 1.5e+07 | 300 | 4000 to 6000 |  | B1 |
|  |  |  |  | 7 to 8 | B2 |
